# Measured values reported in US20190194350A1 (UNIVERSITAT STUTTGART, published 2019).
# B1: IgG 3-43 (antibody)
# heavy: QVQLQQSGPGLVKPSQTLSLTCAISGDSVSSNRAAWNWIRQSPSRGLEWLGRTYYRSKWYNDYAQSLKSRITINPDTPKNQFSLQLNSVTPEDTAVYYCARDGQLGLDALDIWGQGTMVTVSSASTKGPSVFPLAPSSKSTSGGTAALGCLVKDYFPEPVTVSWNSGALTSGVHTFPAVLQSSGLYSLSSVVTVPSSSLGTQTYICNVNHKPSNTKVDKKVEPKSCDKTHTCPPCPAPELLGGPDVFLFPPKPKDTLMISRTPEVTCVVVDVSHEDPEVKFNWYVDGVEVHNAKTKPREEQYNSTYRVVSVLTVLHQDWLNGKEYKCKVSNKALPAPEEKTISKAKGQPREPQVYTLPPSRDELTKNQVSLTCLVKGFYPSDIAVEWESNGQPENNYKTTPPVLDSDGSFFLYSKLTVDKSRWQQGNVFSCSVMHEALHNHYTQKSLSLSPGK
# light: QAGLTQPPAVSVAPGQTASITCGRDNIGSRSVHWYQQKPGQAPVLVVYDDSDRPAGIPERFSGSNYENTATLTISRVEAGDEADYYCQVWGITSDHVVFGGGTKLTVLCGQPKAAPSVTLFPPSSEELQANKATLVCLISDFYPGAVTVAWKADSSPVKAGVETTTPSKQSNNKYAASSYLSLTPEQWKSHRSYSCQVTHEGSTVEKTVAPTECS
# notes: also called 3-43-IgG; 3-43 IgG
# Key:
# [1] = biological target: T1, HER3 on HER3-expressing tumor cells (human, UniProt P21860 20-1342); assay: flow cytometry, A431 cells
# T1 construct: Endogenous HER3 of human tumor cell lines (MCF-7, FaDu, BT474, A431, NCI-N87, A549, SKBR-3, Colo205, HCT-116, A375 and melanoma lines); also called cellular receptor HER3; cell surface expressed HER3
# [2] = biological target: T1, HER3 on HER3-expressing tumor cells; assay: flow cytometry, FaDu cells; FaDu cells; Table 3 experiment, alongside scDb hu225x3-43-Fc
# [3] = biological target: T1, HER3 on HER3-expressing tumor cells; assay: flow cytometry on NCI-N87 cells, PE-labeled secondary antibody; the small table prints no unit, the axis is Concentration [nM] [panel NCI-N87]
# [4] = biological target: T1, HER3 on HER3-expressing tumor cells; assay: flow cytometry, FaDu cells
# [5] = biological target: T1, HER3 on HER3-expressing tumor cells; assay: flow cytometry on MCF-7 cells, PE-labeled secondary antibody; the small table prints no unit, the axis is Concentration [nM] [panel MCF7]
# [6] = biological target: T1, HER3 on HER3-expressing tumor cells; assay: flow cytometry, FaDu cells; FaDu cells
# [7] = biological target: T1, HER3 on HER3-expressing tumor cells; assay: flow cytometry, NCI-N87 cells
# [8] = biological target: T1, HER3 on HER3-expressing tumor cells; assay: flow cytometry on BT474 cells, PE-labeled secondary antibody; the small table prints no unit, the axis is Concentration [nM] [panel BT474]
# [9] = biological target: T1, HER3 on HER3-expressing tumor cells; assay: flow cytometry on A431 cells, PE-labeled secondary antibody; the small table prints no unit, the axis is Concentration [nM] [panel A431]
# [10] = biological target: T2, HER3-Fc fusion protein (Fc fusion protein of the extracellular domain of human HER3, limits not stated at the … (human, UniProt P21860 20-643)); assay: quartz crystal microbalance (Attana), IgG 3-43 on chip, HER3-Fc as analyte (bivalent)
# T2 construct: also called wild-type HER3-Fc; human HER3-Fc fusion protein; not shown: human Fc region
# [11] = biological target: T1, HER3 on HER3-expressing tumor cells; assay: flow cytometry, FaDu cells (text; Table 3 prints 0.30)
# [12] = biological target: T1, HER3 on HER3-expressing tumor cells; assay: flow cytometry on FaDu cells, PE-labeled secondary antibody; the small table prints no unit, the axis is Concentration [nM] [panel FADU]
# [13] = biological target: T3, HER3-His (HER3 aa 27-599 of the extracellular domain fused C-terminally with a hexahistidyl-tag) (human, UniProt P21860 27-599); assay: quartz crystal microbalance (Attana), IgG 3-43 on chip, HER3-his as analyte
# T3 construct: also called soluble His-tagged HER3; His-tagged extracellular domain of HER3; not shown: C-terminal hexahistidyl-tag
# [14] = biological target: T1, HER3 on HER3-expressing tumor cells; assay: flow cytometry, BT474 cells
# [15] = biological target: T1, HER3 on HER3-expressing tumor cells; assay: flow cytometry, MCF-7 cells; MCF-7 cells
# [16] = biological target: T4, HER3 fragment aa 395-643 Fc fusion protein (part of DIII and the entire DIV) (human, UniProt P21860 395-643); assay: ELISA, coated HER3-Fc fragments at 10 µg/ml, anti-human Fab-HRP
# T4 construct: not shown: IgG1 Fc part
# [17] = biological target: T5, HER3 fragment aa 359-643 Fc fusion protein (part of DIII and the entire DIV) (human, UniProt P21860 359-643); assay: as above
# T5 construct: not shown: IgG1 Fc part
# [18] = biological target: T6, HER3 DIV-Fc (aa 532-643) (human, UniProt P21860 532-643); assay: as above
# T6 construct: not shown: IgG1 Fc part
# [19] = biological target: T7, Fc fusion protein containing HER3 DI-DIII (aa 20-531; lacking DIV) (human, UniProt P21860 20-531); assay: as above
# T7 construct: also called DI-DIII Fc; not shown: IgG1 Fc part
# [20] = biological target: T8, Fc fusion protein containing HER3 DI-DII and a short part of DIII (aa 20-358) (human, UniProt P21860 20-358); assay: as above
# T8 construct: not shown: IgG1 Fc part
# [21] = biological target: T9, HER3 fragment aa 458-643 Fc fusion protein (part of DIII and the entire DIV) (human, UniProt P21860 458-643); assay: as above
# T9 construct: not shown: IgG1 Fc part
# [22] = biological target: T1, HER3 on HER3-expressing tumor cells; assay: flow cytometry, A549 cells
# [23] = biological target: T2, HER3-Fc fusion protein (Fc fusion …); assay: quartz crystal microbalance (Attana), IgG 3-43 on chip, HER3-Fc as analyte
# [24] = biological target: T10, mouse HER3-Fc fusion protein (extracellular region of mouse HER3 fused to a human Fc region) (mouse, UniProt Q61526 20-641); assay: ELISA, coated mouse HER3-Fc, serial dilution of IgG 3-43, absorption at 450 nm
# T10 construct: extracellular domain; not shown: human Fc region
# [25] = biological target: T1, HER3 on HER3-expressing tumor cells; assay: flow cytometry, SKBR-3 cells; SKBR-3 cells
# [26] = biological target: T11, HER3 fragment aa 329-550 Fc fusion protein (human, UniProt P21860 329-550); assay: ELISA, coated HER3-Fc fragments
# T11 construct: not shown: IgG1 Fc part
# [27] = biological target: T12, HER3 fragment aa 20-550 Fc fusion protein (DI-III plus part of DIV) (human, UniProt P21860 20-550); assay: ELISA, coated HER3-Fc fragments
# T12 construct: not shown: IgG1 Fc part
# [28] = biological target: T13, HER3 fragment aa 359-587 Fc fusion protein (human, UniProt P21860 359-587); assay: ELISA, coated HER3-Fc fragments
# T13 construct: not shown: IgG1 Fc part
# [29] = biological target: T1, HER3 on HER3-expressing tumor cells; assay: flow cytometry on A549 cells, PE-labeled secondary antibody; the small table prints no unit, the axis is Concentration [nM] [panel A549]
# [30] = biological target: T1, HER3 on HER3-expressing tumor cells; assay: flow cytometry, MCF-7 cells
# [31] = biological target: T14, HER3-ECD protein (Homo sapiens (Human), UniProt P21860 20-643); assay: ELISA, immobilized HER3-ECD
# T14 construct: also called receptor-ECD protein
# T10 sequence (Q61526 20-641): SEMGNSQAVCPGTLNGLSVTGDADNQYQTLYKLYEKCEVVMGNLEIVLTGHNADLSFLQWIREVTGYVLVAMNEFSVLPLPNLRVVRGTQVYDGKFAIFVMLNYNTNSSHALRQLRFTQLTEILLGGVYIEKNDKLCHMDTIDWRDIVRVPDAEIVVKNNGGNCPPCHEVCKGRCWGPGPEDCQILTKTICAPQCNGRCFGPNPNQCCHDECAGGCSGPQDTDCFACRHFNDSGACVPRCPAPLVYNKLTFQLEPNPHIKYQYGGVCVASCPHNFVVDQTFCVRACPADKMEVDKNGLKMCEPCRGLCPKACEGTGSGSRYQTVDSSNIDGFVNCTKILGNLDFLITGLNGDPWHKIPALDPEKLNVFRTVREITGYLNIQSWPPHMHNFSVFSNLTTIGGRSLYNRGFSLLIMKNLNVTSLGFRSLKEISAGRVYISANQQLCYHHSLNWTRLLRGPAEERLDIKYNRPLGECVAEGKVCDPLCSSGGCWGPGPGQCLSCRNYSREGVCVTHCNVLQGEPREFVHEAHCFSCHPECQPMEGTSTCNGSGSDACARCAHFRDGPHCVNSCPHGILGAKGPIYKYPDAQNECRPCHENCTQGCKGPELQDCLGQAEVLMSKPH
binder,measurement,setting,value
B1,EC50,[1],0.045 nM
same,EC50,[2],0.3 nM
same,EC50,[3],0.0266 nM
same,EC50,[4],0.03 nM
same,EC50,[5],0.0365 nM
same,EC50,[6],0.003 nM
same,EC50,[7],0.027 nM
same,EC50,[8],0.0743 nM
same,EC50,[9],0.0445 nM
same,Kd,[10],0.22 nM
same,EC50,[11],0.006 nM
same,EC50,[12],0.0302 nM
same,koff,[13],0.00696 s⁻¹
same,kon,[13],622000 M⁻¹ s⁻¹
same,EC50,[14],0.074 nM
same,EC50,[15],0.021 nM
same,binding result,[16],no binding
same,binding result,[17],no binding
same,binding result,[18],no binding
same,binding result,[19],no binding
same,binding result,[20],no binding
same,binding result,[21],no binding
same,EC50,[22],0.053 nM
same,koff,[23],0.000103 s⁻¹
same,kon,[23],468000 M⁻¹ s⁻¹
same,EC50 (read off the curve),[24],~3 nM
same,EC50,[25],0.022 nM
same,binding result,[26],no binding
same,binding result,[27],no binding
same,binding result,[28],no binding
same,EC50,[29],0.0536 nM
same,EC50,[30],0.037 nM
same,EC50,[31],0.33 nM
